In PMC7793260, “MreC and MreD balance the interaction between the elongasome proteins PBP2 and RodA” (PLoS Genetics, 2020):

Legend:
Assay in all cases: FRET or BRET; two-plasmid spectral FRET in E. coli LMC500 cells; mCherry fusion as acceptor, mKO fusion as donor; Gb4 medium, steady state at 28 C, 15 uM IPTG for two mass doublings, FAGA-fixed; acceptor FRET efficiency (EfA) by spectral unmixing
[1] = target: the molecule itself
[2] = target: T1, mKO-^MalF37PBP2 (E. coli, UniProt P02916 1-37; P0AD65 46-633); details: partners not purified
T1 construct: MalF of E. coli, the first 37 residues (cytoplasmic N-terminus and transmembrane helix), amplified from the MG1655 genome; PBP2 of E. coli excluding the first 45 residues (NT and TMH removed, periplasmic domain kept); also called PBP2 with the NT and TMH of MalF; source: E. coli LMC500, expressed from plasmid (15 uM IPTG), in fixed cells; not shown: mKO, N-terminal, kept
T1 chain (looked up): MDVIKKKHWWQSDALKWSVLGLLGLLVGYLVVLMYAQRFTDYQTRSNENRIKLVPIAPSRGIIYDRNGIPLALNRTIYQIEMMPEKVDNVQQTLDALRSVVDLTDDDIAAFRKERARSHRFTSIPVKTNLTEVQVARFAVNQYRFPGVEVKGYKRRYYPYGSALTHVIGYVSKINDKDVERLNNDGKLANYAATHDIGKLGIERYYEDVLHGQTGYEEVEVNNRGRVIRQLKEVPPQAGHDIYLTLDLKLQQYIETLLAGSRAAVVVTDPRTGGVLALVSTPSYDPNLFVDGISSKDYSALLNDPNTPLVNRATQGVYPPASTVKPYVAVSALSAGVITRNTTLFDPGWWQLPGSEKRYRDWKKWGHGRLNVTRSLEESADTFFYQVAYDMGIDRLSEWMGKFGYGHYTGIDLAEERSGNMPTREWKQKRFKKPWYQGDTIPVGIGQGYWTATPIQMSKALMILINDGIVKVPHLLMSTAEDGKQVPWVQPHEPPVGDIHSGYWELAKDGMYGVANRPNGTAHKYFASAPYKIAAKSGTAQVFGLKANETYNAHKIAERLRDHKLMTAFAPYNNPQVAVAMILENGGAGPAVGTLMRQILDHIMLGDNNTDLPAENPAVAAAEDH

[3] = target: T2, mKO-PBP2^L61R (E. coli, UniProt P0AD65 1-633, L61R); details: partners not purified
T2 construct: PBP2 of E. coli with L61R (hyperactive variant); made from pWA004 by mutagenesis PCR; also called hyperactive PBP2^L61R; source: E. coli LMC500, expressed from plasmid (15 uM IPTG), in fixed cells; not shown: mKO, N-terminal, kept
T2 sequence (looked up): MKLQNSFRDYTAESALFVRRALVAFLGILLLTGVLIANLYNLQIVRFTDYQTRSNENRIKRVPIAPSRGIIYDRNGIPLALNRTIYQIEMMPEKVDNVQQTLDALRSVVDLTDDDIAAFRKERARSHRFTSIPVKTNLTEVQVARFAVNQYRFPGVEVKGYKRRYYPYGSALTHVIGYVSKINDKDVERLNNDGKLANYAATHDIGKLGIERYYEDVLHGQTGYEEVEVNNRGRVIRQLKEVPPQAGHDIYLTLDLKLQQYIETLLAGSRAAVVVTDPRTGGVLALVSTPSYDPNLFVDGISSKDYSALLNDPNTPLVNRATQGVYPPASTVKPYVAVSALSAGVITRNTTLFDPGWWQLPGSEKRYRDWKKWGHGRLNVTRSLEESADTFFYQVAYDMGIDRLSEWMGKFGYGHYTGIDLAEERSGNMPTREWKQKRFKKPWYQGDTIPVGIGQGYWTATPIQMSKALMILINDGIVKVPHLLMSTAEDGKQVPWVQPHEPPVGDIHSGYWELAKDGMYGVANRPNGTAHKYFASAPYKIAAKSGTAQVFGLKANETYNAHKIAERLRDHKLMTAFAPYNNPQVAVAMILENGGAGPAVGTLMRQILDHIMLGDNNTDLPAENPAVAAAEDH

B1: RodA (wild type), fused to mCherry or to mKO (enzyme, E. coli, UniProt P0ABG7 1-370, looked up)
chain: MTDNPNKKTFWDKVHLDPTMLLILLALLVYSALVIWSASGQDIGMMERKIGQIAMGLVIMVVMAQIPPRVYEGWAPYLYIICIILLVAVDAFGAISKGAQRWLDLGIVRFQPSEIAKIAVPLMVARFINRDVCPPSLKNTGIALVLIFMPTLLVAAQPDLGTSILVALSGLFVLFLSGLSWRLIGVAVVLVAAFIPILWFFLMHDYQRQRVMMLLDPESDPLGAGYHIIQSKIAIGSGGLRGKGWLHGTQSQLEFLPERHTDFIFAVLAEELGLVGILILLALYILLIMRGLWIAARAQTTFGRVMAGGLMLILFVYVFVNIGMVSGILPVVGVPLPLVSYGGSALIVLMAGFGIVMSIHTHRKMLSKSV
notes: RodA, peptidoglycan glycosyltransferase of the E. coli elongasome; wild-type rodA gene; mCh-RodA in all others; also called mCh-RodA; mKO-RodA; source: E. coli LMC500, expressed from plasmid (15 uM IPTG), in fixed cells; not shown: mCherry (acceptor construct, pSAV047-RodA) or mKO (donor construct, pXL56), N-terminal, kept
Which “EfA (acceptor FRET efficiency)” value [1] does the source give for B1 here?
The value was 5.5%.

What about the “EfA (acceptor FRET efficiency)” value [2] of the same binder?
Its value is 8.2%.

What about the “EfA (acceptor FRET efficiency)” value [3] of the same binder?
Its value is 10.8%.
